One assay deals with β-tubulin (human (endogenous in VTC-001 and …, UniProt P07437 1-444)). The assay can be described thus: cellular thermal shift assay (CETSA); fresh VTC-037 GSC lysates in non-denaturing buffer treated 1 h with 3-fold dilutions (222.2, 74.0, 24.7, 8.2 and 2.7 nM) of peptide, heat challenge at 57 °C for 20 min, centrifugation, immunoblot of the stable protein normalised to DMSO control; EC50 of target engagement. The settings on record: one partner purified. For orientation: A western blot detects proteins with antibodies after separation by electrophoresis.

The target in a further assay is α-tubulin (human (endogenous in VTC-037 GSCs), UniProt P68363 1-451). The assay is described as above. As to conditions: one partner purified.

Ends that are not written are not given here. * marks the point of attachment. Biotin = O=C1N[C@H]2[C@H](CS[C@H]2CCCCC(=O)*)N1 A value given as a limit tells only on which side of the number the result lay.

Chain of β-tubulin (human (P07437 whole entry): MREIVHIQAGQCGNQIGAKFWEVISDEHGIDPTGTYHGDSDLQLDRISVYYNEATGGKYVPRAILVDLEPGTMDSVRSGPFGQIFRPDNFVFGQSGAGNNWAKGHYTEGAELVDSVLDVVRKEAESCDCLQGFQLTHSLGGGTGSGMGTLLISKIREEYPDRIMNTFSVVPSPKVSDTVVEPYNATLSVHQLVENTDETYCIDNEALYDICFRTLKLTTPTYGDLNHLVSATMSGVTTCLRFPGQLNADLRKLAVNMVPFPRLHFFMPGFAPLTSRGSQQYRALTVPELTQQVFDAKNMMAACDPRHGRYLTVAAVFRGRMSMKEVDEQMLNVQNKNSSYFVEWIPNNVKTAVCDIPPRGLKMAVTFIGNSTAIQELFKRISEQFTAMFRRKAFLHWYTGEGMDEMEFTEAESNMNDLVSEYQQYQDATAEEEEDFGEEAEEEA
Chain of α-tubulin (P68363 whole entry): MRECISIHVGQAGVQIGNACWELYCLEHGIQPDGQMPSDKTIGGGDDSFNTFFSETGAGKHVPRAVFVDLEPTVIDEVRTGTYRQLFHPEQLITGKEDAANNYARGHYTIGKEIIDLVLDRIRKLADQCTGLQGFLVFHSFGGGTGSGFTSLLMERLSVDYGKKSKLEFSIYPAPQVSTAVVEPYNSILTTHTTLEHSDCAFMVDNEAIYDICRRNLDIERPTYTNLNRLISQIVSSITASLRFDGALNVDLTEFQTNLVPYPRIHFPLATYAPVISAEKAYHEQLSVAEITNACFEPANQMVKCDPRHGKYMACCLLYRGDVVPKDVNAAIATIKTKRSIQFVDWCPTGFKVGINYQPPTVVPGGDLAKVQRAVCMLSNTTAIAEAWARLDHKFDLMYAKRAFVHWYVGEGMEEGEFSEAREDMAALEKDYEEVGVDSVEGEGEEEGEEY

B1: JM2-scrambled peptide (peptide)
chain: Biotin-RQPKIWFPNRRKPWKKGSDVFKRKFVDRKVG
By EC50 is commonly meant the concentration that produces a half-maximal response. For B1, the EC50 with β-tubulin and with α-tubulin was greater than 200 nM each time.
